# Measurements as given in paper PMC6175878, “ROS-induced R loops trigger a transcription-coupled but BRCA1/2-independent homologous recombination pathway through CSB” (Nature Communications, 2018).
# T1: hRAD52 with a C-terminal 6x-his tag (human, UniProt P43351 1-418)
# T1 construct: RAD52, human (hRAD52), from pET28b-RAD52; also called His-RAD52; RAD52 protein; source: E. coli Rosetta, purified (Affiblue, Ni-NTA); not shown: His6, C-terminal, kept
# T1 sequence (looked up): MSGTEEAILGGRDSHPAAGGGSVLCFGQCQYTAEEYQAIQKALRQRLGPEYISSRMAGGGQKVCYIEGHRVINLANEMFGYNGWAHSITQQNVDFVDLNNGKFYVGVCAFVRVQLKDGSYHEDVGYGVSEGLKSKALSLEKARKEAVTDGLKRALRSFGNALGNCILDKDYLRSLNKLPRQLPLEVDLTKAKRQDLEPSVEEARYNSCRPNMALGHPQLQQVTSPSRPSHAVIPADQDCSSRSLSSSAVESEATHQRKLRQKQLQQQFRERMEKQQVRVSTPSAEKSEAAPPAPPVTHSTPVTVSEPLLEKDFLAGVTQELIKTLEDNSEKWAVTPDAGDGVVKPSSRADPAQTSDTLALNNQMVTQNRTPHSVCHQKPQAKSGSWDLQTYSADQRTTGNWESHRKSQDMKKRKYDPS
# T2: RAD52 (human, UniProt P43351 1-418)
# T2 sequence: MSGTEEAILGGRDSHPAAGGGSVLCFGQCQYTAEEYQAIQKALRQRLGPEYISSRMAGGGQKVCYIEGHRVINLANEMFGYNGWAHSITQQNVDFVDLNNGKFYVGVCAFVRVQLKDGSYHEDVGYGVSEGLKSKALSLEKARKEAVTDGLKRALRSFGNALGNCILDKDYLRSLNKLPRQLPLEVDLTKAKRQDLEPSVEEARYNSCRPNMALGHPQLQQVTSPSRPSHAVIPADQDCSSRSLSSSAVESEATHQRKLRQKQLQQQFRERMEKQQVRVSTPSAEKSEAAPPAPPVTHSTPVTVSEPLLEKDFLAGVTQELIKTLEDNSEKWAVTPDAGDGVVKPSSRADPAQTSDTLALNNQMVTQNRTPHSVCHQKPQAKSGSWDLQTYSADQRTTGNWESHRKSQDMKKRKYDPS
# Assays:
# [1] = molecular target: 6H-Flag-CSB (human) (UniProt Q03468); experiment: SEC; Superdex 200 in Buffer B (25 mM Tris-Cl pH 7.5, 10% glycerol, 0.5 mM EDTA, 500 mM KCl, 0.01% IGEPAL, 1 mM DTT), 4 °C; last step of the purification
# [2] = molecular target: T1, hRAD52 with a C-terminal 6x-his tag; experiment: cross-linking; 1 mM DSS, 100 mM Hepes pH 7.5, 50 mM KCl, 25 °C, 1 h; cross-linked species (>250 kDa) cut from SDS-PAGE, trypsin, mass spectrometry (pLink); conditions: both partners purified
# [3] = molecular target: GST-CSB-CTD (human, UniProt Q03468 1200-1493); experiment: EMSA; 1 mM Mg2+; EMSA: 25 mM Tris-HCl pH 7.5, 1 mM MgCl2, 1 mM DTT, 50 ug/mL BSA, 50 mM NaCl, 15 min 37 C, 6% PAGE-TBE at 4 C; pull-down: 20 mM Tris-HCl pH 7.5, 50 mM NaCl, 2 mM MgCl2, 0.1% Tween-20, 30% glycerol, RNase 0.2 U/uL (so in the source); conditions: protein: recombinant; tags: GST (N-term, pGEX-4T); label: 5' maleimide-IR800 on oligo 1 (RNA); blunt
# GST-CSB-CTD, sequence (Q03468 1200-1493): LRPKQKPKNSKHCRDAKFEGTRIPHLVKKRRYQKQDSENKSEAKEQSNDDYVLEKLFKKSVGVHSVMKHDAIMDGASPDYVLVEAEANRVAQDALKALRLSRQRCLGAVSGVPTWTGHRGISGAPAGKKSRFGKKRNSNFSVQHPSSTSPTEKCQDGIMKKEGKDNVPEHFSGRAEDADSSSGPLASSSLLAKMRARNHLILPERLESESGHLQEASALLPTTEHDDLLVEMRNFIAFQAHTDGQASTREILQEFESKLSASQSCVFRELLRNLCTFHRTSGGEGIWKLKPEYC
# [4] = molecular target: GST-CSB-AD (human, UniProt Q03468 337-509); experiment: as above; conditions: protein: recombinant; tags: GST (N-term, pGEX-4T-3); label: 5' maleimide-IR800 on oligo 1 (RNA); blunt
# [5] = molecular target: 6H-Flag-CSB full length (CSB-FL) (human, UniProt Q03468 1-1493); experiment: EMSA; 1 mM Mg2+; much higher affinity than RAD52; EMSA: 25 mM Tris-HCl pH 7.5, 1 mM MgCl2, 1 mM DTT, 50 ug/mL BSA, 50 mM NaCl, 15 min 37 C, 6% PAGE-TBE at 4 C; pull-down: 20 mM Tris-HCl pH 7.5, 50 mM NaCl, 2 mM MgCl2, 0.1% Tween-20, 30% glycerol, RNase 0.2 U/uL (so in the source); conditions: protein: recombinant; chain copies: 2; label: 5' maleimide-IR800 on oligo 1 (RNA); blunt
# 6H-Flag-CSB full length (CSB-FL), sequence (Q03468 whole entry): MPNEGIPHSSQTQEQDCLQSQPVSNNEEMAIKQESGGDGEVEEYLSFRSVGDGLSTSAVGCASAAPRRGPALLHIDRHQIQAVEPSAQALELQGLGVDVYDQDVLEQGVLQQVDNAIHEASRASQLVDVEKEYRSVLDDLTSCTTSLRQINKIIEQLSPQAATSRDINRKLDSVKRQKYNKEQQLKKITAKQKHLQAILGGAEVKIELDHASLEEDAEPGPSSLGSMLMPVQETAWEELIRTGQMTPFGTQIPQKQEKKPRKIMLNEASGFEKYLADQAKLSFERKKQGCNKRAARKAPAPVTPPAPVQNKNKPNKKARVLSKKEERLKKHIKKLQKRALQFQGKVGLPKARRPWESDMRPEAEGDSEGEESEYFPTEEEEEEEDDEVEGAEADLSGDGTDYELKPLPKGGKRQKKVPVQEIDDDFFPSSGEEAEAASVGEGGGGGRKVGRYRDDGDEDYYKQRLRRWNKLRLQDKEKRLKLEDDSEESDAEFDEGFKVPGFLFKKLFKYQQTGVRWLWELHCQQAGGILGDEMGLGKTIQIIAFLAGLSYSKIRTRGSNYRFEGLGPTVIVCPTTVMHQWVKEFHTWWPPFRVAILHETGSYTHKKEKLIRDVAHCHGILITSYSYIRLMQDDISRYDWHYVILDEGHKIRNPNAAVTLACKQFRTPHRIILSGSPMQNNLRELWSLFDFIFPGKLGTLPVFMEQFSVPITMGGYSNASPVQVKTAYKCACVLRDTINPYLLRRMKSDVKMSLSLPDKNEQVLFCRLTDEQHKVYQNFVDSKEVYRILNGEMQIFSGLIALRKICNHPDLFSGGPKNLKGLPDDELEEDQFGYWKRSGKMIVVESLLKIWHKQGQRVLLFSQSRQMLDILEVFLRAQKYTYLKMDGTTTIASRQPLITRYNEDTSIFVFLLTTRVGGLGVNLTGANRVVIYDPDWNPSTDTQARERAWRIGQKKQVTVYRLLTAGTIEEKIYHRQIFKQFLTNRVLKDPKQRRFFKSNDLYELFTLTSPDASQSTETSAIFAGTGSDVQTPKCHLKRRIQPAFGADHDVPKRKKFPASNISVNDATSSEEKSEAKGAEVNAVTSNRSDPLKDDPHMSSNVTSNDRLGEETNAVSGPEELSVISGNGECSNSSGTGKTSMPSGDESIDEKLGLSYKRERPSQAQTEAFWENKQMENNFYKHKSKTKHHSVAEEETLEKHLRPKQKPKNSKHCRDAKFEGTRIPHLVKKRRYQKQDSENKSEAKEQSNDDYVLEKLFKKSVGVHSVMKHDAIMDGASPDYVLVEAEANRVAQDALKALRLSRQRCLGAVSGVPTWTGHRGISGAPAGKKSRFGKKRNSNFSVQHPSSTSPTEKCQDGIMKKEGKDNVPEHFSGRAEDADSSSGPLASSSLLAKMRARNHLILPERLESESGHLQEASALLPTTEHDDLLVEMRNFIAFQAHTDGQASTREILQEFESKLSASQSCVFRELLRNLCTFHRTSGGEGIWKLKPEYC
# [6] = molecular target: T2, RAD52; experiment: EMSA; 1 mM Mg2+; lower affinity than CSB-FL; EMSA: 25 mM Tris-HCl pH 7.5, 1 mM MgCl2, 1 mM DTT, 50 ug/mL BSA, 50 mM NaCl, 15 min 37 C, 6% PAGE-TBE at 4 C; pull-down: 20 mM Tris-HCl pH 7.5, 50 mM NaCl, 2 mM MgCl2, 0.1% Tween-20, 30% glycerol, RNase 0.2 U/uL (so in the source); conditions: protein: recombinant; tags: C-terminal 6xHis; label: 5' maleimide-IR800 on oligo 1 (RNA); blunt
# 6H-Flag-CSB, sequence (Q03468 whole entry): as above
molecule,measurement,setting,value
6H-Flag-CSB (from UniProt Q03468 1-1493) (natural protein; other documents disagree on this pair),stoichiometry N,[1],2
"GST-CSB-AD (residues 337-509) (domain or fragment, human, UniProt Q03468 337-509, looked up, Cockayne Syndrome Protein B (CSB), human, acidic domain residues 337-509; Inserted into pGEX-4T-3 with XhoI and NotI; also called GST-tagged human CSB-AD; purified CSB-AD; source: E. coli Rosetta 2, purified (glutathione sepharose 4B)) KRALQFQGKVGLPKARRPWESDMRPEAEGDSEGEESEYFPTEEEEEEEDDEVEGAEADLSGDGTDYELKPLPKGGKRQKKVPVQEIDDDFFPSSGEEAEAASVGEGGGGGRKVGRYRDDGDEDYYKQRLRRWNKLRLQDKEKRLKLEDDSEESDAEFDEGFKVPGFLFKKLFK",binding result,[2],binds
DNA:RNA hybrid oligo 1/oligo 2 (DNA:RNA) RNA: UUAAUUGGUGUGACUAAUCGAAGUUGAUACAUCGACGUUAUGGUGAUGAU DNA: ATCATCACCATAACGTCGATGTATCAACTTCGATTAGTCACACCAATTAA,binding result,[3],binds
same,binding result,[4],no binding
same,binding result,[5],binds
same,binding result,[6],binds
